Results taken from patent publication US20230414709A1 (TRUSTEES OF COLUMBIA UNIVERSITY IN THE CITY OF NEW YORK, published 2023).

Each binder was assayed against mouse megalin (mouse, UniProt A2ARV4 26-4660) (assay: cell-based or functional assay).
mouse megalin, sequence (A2ARV4 26-4660 limits assumed): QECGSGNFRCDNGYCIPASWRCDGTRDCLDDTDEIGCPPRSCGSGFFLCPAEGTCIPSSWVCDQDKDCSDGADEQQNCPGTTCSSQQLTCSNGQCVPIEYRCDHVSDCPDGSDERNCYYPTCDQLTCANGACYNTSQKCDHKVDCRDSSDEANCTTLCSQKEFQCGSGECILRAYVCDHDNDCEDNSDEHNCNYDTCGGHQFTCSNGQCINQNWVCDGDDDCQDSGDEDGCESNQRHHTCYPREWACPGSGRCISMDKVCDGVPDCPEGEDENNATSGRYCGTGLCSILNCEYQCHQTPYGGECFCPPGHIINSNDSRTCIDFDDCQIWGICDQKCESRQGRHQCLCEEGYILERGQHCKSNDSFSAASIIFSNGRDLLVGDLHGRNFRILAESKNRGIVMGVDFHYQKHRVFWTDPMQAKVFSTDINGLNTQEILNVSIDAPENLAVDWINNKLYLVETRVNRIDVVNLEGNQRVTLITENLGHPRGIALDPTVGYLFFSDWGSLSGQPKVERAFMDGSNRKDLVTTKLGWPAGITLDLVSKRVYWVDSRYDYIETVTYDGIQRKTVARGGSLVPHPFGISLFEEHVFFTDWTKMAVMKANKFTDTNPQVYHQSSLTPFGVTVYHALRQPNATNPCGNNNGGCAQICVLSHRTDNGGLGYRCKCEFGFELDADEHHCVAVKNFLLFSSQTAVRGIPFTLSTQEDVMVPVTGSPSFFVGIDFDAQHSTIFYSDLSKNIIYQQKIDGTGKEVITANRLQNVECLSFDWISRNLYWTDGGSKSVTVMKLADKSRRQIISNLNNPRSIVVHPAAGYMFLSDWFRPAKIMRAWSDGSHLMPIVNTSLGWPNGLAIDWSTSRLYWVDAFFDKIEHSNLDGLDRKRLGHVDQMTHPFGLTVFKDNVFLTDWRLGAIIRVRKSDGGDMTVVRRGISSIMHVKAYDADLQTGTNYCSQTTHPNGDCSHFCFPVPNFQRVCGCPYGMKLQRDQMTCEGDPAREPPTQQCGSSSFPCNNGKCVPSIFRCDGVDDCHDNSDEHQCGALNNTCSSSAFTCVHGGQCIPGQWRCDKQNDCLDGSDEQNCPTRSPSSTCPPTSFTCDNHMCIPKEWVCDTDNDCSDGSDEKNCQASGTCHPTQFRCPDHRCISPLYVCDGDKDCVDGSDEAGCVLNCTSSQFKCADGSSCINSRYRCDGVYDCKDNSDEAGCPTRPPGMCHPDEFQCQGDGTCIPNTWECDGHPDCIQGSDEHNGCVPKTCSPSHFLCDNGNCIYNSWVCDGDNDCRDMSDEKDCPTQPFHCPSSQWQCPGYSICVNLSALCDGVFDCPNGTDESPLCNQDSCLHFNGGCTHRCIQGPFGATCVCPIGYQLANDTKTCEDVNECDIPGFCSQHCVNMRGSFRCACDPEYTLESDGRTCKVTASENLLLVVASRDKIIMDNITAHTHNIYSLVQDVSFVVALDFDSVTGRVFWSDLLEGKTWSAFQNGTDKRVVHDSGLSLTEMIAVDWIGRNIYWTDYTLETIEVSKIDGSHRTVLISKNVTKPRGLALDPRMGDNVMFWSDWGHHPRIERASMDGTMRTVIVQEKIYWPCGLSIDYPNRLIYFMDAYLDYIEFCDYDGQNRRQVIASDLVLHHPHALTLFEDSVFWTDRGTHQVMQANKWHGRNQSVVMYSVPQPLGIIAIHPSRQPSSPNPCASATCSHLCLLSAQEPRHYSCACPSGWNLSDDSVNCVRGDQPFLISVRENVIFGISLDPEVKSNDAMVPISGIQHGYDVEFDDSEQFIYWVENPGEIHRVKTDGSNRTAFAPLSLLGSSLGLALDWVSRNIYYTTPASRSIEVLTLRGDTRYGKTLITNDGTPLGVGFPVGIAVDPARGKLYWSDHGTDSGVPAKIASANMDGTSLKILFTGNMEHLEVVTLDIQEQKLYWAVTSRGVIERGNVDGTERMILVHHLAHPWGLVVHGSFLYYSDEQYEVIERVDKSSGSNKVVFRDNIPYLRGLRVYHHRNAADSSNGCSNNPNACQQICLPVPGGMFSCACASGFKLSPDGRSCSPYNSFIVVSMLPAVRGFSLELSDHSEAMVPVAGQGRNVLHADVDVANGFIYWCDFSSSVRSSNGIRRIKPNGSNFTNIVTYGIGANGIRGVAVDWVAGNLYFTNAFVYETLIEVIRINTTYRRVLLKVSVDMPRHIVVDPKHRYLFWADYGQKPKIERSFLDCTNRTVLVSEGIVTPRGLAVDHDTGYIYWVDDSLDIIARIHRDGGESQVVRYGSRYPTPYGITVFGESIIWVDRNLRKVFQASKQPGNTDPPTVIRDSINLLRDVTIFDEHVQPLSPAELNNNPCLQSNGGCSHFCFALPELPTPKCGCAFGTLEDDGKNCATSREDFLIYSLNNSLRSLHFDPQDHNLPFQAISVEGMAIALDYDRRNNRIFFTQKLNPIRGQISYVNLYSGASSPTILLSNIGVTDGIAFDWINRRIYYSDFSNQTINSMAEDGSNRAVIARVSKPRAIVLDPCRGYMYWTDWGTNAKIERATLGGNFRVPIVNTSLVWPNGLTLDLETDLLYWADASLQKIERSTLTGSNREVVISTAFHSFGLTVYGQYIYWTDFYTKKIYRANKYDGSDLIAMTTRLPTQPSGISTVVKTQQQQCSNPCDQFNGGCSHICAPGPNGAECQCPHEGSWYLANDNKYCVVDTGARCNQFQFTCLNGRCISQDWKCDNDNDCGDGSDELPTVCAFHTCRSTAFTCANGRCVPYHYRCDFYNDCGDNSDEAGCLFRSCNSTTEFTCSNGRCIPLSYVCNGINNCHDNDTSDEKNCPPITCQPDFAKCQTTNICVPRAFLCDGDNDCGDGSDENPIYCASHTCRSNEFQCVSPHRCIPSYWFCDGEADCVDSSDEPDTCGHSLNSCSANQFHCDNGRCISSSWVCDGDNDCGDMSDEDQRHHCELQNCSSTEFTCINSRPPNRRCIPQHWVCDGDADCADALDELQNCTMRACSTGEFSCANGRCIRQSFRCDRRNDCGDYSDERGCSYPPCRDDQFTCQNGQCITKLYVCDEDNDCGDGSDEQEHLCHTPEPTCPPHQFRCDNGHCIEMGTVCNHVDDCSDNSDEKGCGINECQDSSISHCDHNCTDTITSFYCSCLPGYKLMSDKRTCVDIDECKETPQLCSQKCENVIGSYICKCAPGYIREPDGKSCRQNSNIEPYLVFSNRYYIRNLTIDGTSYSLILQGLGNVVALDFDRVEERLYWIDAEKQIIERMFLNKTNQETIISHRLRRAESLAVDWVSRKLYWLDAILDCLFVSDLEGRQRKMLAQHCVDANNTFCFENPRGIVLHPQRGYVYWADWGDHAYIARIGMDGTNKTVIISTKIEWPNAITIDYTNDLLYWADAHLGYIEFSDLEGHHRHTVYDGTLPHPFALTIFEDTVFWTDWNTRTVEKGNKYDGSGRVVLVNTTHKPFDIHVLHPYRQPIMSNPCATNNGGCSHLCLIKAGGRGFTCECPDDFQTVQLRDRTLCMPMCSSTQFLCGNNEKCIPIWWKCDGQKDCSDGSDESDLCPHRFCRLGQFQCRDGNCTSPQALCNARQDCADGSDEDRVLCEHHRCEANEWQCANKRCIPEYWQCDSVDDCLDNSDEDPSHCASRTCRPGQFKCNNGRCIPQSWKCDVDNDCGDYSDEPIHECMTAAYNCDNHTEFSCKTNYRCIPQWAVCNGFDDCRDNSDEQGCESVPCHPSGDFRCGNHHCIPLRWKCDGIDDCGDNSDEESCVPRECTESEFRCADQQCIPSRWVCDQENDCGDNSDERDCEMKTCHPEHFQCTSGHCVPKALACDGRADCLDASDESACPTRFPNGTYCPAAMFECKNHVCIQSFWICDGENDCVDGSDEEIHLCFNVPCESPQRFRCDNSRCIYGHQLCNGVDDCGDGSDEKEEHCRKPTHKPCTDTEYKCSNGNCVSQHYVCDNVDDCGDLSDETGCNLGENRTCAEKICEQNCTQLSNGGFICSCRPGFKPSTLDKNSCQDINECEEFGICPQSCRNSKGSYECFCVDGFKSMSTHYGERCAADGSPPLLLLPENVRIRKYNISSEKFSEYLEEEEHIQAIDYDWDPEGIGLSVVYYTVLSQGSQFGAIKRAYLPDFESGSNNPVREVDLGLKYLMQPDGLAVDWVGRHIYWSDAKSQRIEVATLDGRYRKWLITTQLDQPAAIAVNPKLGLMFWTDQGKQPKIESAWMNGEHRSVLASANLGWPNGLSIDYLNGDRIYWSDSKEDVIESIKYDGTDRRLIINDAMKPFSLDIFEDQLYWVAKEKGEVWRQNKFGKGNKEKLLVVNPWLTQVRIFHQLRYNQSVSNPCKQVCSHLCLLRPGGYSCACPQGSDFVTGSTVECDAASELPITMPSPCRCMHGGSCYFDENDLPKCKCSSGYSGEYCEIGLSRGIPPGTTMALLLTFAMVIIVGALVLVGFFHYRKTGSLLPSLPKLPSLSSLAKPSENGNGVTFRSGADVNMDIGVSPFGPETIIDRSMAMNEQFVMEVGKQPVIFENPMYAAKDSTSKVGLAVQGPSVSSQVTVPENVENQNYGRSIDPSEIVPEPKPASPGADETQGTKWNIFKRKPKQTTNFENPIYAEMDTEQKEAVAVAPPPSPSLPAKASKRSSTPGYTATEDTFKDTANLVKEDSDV

Binder | Accumulation 3 hours after i.p. injection (%): Urine (Ngal-enterochelin-55Fe3+ complex, C57BL/6 mice) [%]
NGAL mutant A1 (ligand) QDSTSDLIPAPPLSSVPLQQNFQDNQFQGKWYVVGLAGNAILREDKDPQKMYATIYELKEDKSYNVTSVLFRKKKCDYWIRTFVPGCQPGEFTLGNIKSYPGLTSYLVRVVSTNYNQHAMVFFKKVSQNREYFKITLYGRTKELTSELKENFIRFSKSLGLPENHIVFPVPIDQCIDG | 0.55
NGAL mutant B1 (ligand) QDSTSDLIPAPPLSKVPLQQNFQDNQFQGKWYVVGLAGNAILREDKDPQKMYATIYELKEDKSYNVTSVLFRKKKCDYWIRTFVPGCQPGEFTLGNIQSYPGLTSYLVRVVSTNYNQFAMVFFKKVSQNREYFKITLYGRTKELTSELKENFIRFSKSLGLPENNIVFPVPIDQCIDG | 0.22
NGAL mutant F5 (ligand) QDSTSDLIPAPPLSSVPLQQNFQDNQFQGKWYVVGLAGNAILREDEDPQKMYATIYELKEDKSYNVTSVLFRKKKCDYWIRTFVPGCQPGEFTLGNIKSYPGLTSYLVRVVSTNYNQHAMVFFKKVSQNREYFKITLYGRTKELTSELQENFIRFSKSLGLPENNIVFPVPIDQCIDG | 1.23
NGAL mutant H1 (ligand) QDSTSDLIPAPPLSKVPLQQNFQDNQFQGKWYVVGLAGNAILREDKDPQKMYATIYELKEDKSYNVTSVLFRKKKCDYWIRTFVPGCQPGEFTLGNIKSYPGLTSYLVRVVSTNYNQHAMVFFKKVSQNREYFKITLYGRTKELTSELKENFIRFSKSLGLPENNIVFPVPIDQCIDG | 0.37
NGAL mutant G3 (ligand) QDSTSDLIPAPPLSKVPLQQNFQDNQFQGKWYVVGLAGNAILREDKDPQKMYATIYELKEDKSYNVTSVLFRKKKCDYWIRTFVPGCQPGEFTLGNIKSYPGLTSYLVRVVSTNYNQHAMVFFKKVSQNREYFKITLYGRTKELTSELKENFIRFSQSLGLPENHIVFPVPIDQCIDG | 0.17
NGAL mutant B2 (ligand) QDSTSDLIPAPPLSSVPLQQNFQDNQFQGKWYVVGLAGNAILREDEDPQKMYATIYELKEDKSYNVTSVLFRKKKCDYWIRTFVPGCQPGEFTLGNIKSYPGLTSYLVRVVSTNYNQFAMVFFKKVSQNREYFKITLYGRTKELTSELKENFIRFSKSLGLPENNIVFPVPIDQCIDG | 1.22
NGAL mutant G1 (ligand) QDSTSDLIPAPPLSSVPLQQNFQDNQFQGKWYVVGLAGNAILQEDKDPQKMYATIYELKEDKSYNVTSVLFRKKKCDYWIRTFVPGCQPGEFTLGNIKSYPGLTSYLVRVVSTNYNQHAMVFFKKVSQNREYFKITLYGRTKELTSELQENFIRFSKSLGLPENHIVFPVPIDQCIDG | 0.28
NGAL mutant C5 (ligand) QDSTSDLIPAPPLSKVPLQQNFQDNQFQGKWYVVGLAGNAILREDKDPQKMYATIYELKEDKSYNVTSVLFQKKKCDYWIRTFVPGCQPGEFTLGNIKSYPGLTSYLVRVVSTNYNQHAMVFFKKVSQNREYFKITLYGRTKELTSELKENFIRFSQSLGLPENHIVFPVPIDQCIDG | 0.26
NGAL mutant A3 (ligand) QDSTSDLIPAPPLSKVPLQQNFQDNQFQGKWYVVGLAGNAILQEDKDPQKMYATIYELKEDKSYNVTSVLFRKKKCDYWIRTFVPGCQPGEFTLGNIKSYPGLTSYLVRVVSTNYNQHAMVFFKKVSQNREYFKITLYGRTKELTSELKENFIRFSKSLGLPENHIVFPVPIDQCIDG | 0.23
NGAL mutant K2 (ligand) QDSTSDLIPAPPLSSVPLQQNFQDNQFQGKWYVVGLAGNAILREDKDPQKMYATIYELKEDKSYNVTSVLFRDDGCDYWIRTFVPGCQPGEFTLGNIQSYPGLTSYLVRVVSTNYNQFAMVFFKKVSQNQEYFKITLYGRTKELTSELQENFIRFSKSLGLPENNIVFPVPIDQCIDG | 9.6
NGAL mutant K5 (ligand) QDSTSDLIPAPPLSSVPLQQNFQDNQFQGKWYVVGLAGNAILREDEDPQKMYATIYELKEDKSYNVTSVLFRKKKCDYWIRTFVPGCQPGEFTLGNIQSYPGLTSYLVRVVSTNYNQFAMVFFKKVSQNQEYFKITLYGRTKELTSELQENFIRFSKSLGLPENNIVFPVPIDQCIDG | 2.9
NGAL mutant I3 (ligand) QDSTSDLIPAPPLSKVPLQQNFQDNQFQGKWYVVGLAGNAILREDKDPQKMYATIYELKEDGSYNVTSVLFRDDGCDYWIRTFVPGCQPGEFTLGNIQSYPGLTSYLVRVVSTNYNQHAMVFFKKVSQNREYFKITLYGRTKELTSELKENFIRFSKSLGLPENHIVFPVPIDQCIDG | 6.9
NGAL mutant F4 (ligand) QDSTSDLIPAPPLSSVPLQQNFQDNQFQGKWYVVGLAGNAILREDEDPQKMYATIYELKEDKSYNVTSVLFRKKKCDYWIRTFVPGCQPGEFTLGNIKSYPGLTSYLVRVVSTNYNQHAMVFFKKVSQNREYFKITLYGRTKELTSELQENFIRFSKSLGLPENHIVFPVPIDQCIDG | 1.65
NGAL mutant F2 (ligand) QDSTSDLIPAPPLSKVPLQQNFQDNQFQGKWYVVGLAGNAILREDEDPQKMYATIYELQEDKSYNVTSVLFRKKKCDYWIRTFVPGCQPGEFTLGNIKSYPGLTSYLVRVVSTNYNQHAMVFFKKVSQNREYFKITLYGRTKELTSELKENFIRFSKSLGLPENHIVFPVPIDQCIDG | 0.11
NGAL mutant H5 (ligand) QDSTSDLIPAPPLSSVPLQQNFQDNQFQGKWYVVGLAGNAILREDKDPQKMYATIYELKEDKSYNVTSVLFRKKKCDYWIRTFVPGCQPGEFTLGNIQSYPGLTSYLVRVVSTNYNQHAMVFFKKVSQNREYFKITLYGRTKELTSELKENFIRFSKSLGLPENNIVFPVPIDQCIDG | 0.24
NGAL mutant H3 (ligand) QDSTSDLIPAPPLSKVPLQQNFQDNQFQGKWYVVGLAGNAILREDKDPQKMYATIYELKEDKSYNVTSVLFRKKKCDYWIRTFVPGCQPGEFTLGNIKSYPGLTSYLVRVVSTNYNQFAMVFFKKVSQNREYFKITLYGRTKELTSELQENFIRFSKSLGLPENNIVFPVPIDQCIDG | 0.3
NGAL mutant I5 (ligand) QDSTSDLIPAPPLSSVPLQQNFQDNQFQGKWYVVGLAGNAILREDKDPQKMYATIYELKEDGSYNVTSVLFRDDGCDYWIRTFVPGCQPGEFTLGNIKSYPGLTSYLVRVVSTNYNQHAMVFFKKVSQNQEYFKITLYGRTKELTSELKENFIRFSKSLGLPENHIVFPVPIDQCIDG | 0.05
NGAL mutant D1 (ligand) QDSTSDLIPAPPLSKVPLQQNFQDNQFQGKWYVVGLAGNAILREDKDPQKMYATIYELKEDKSYNVTSVLFRDDGCDYWIRTFVPGCQPGEFTLGNIKSYPGLTSYLVRVVSTNYNQHAMVFFKKVSQNREYFKITLYGRTKELTSELKENFIRFSKSLGLPENHIVFPVPIDQCIDG | 0.1
NGAL mutant I1 (ligand) QDSTSDLIPAPPLSSVPLQQNFQDNQFQGKWYVVGLAGNAILREDKDPQKMYATIYELKEDKSYNVTSVLFRDDGCDYWIRTFVPGCQPGEFTLGNIKSYPGLTSYLVRVVSTNYNQHAMVFFKKVSQNQEYFKITLYGRTKELTSELKENFIRFSKSLGLPENHIVFPVPIDQCIDG | 6
NGAL mutant K1 (ligand) QDSTSDLIPAPPLSSVPLQQNFQDNQFQGKWYVVGLAGNAILREDEDPQKMYATIYELQEDKSYNVTSVLFRKKKCDYWIRTFVPGCQPGEFTLGNIQSYPGLTSYLVRVVSTNYNQFAMVFFKKVSQNQEYFKITLYGRTKELTSELQENFIRFSKSLGLPENNIVFPVPIDQCIDG | 1.9
NGAL mutant F1 (ligand) QDSTSDLIPAPPLSSVPLQQNFQDNQFQGKWYVVGLAGNAILREDEDPQKMYATIYELQEDKSYNVTSVLFRKKKCDYWIRTFVPGCQPGEFTLGNIKSYPGLTSYLVRVVSTNYNQHAMVFFKKVSQNREYFKITLYGRTKELTSELKENFIRFSKSLGLPENHIVFPVPIDQCIDG | 0.51
NGAL mutant D2 (ligand) QDSTSDLIPAPPLSKVPLQQNFQDNQFQGKWYVVGLAGNAILREDKDPQKMYATIYELKEDGSYNVTSVLFRKKKCDYWIRTFVPGCQPGEFTLGNIKSYPGLTSYLVRVVSTNYNQHAMVFFKKVSQNREYFKITLYGRTKELTSELKENFIRFSKSLGLPENHIVFPVPIDQCIDG | 0.11
NGAL mutant A2 (ligand) QDSTSDLIPAPPLSSVPLQQNFQDNQFQGKWYVVGLAGNAILREDKDPQKMYATIYELKEDKSYNVTSVLFRKKKCDYWIRTFVPGCQPGEFTLGNIKSYPGLTSYLVRVVSTNYNQHAMVFFKKVSQNREYFKITLYGQTQELTSELKENFIRFSKSLGLPENHIVFPVPIDQCIDG | 0.18
NGAL mutant H2 (ligand) QDSTSDLIPAPPLSSVPLQQNFQDNQFQGKWYVVGLAGNAILREDKDPQKMYATIYELKEDKSYNVTSVLFRKKKCDYWIRTFVPGCQPGEFTLGNIQSYPGLTSYLVRVVSTNYNQFAMVFFKKVSQNQEYFKITLYGRTKELTSELQENFIRFSKSLGLPENNIVFPVPIDQCIDG | 0.27
